We go through ten molecules from patent US20230295284A1 (MIT, published 2023).

In the experiment the target is human plasma fibronectin (human, UniProt P02751-8 32-2296, limits assumed). As to the kind of experiment: Western blot, biotin-tagged nanobody. Background: In western blotting, separated proteins are transferred to a membrane and probed.
human plasma fibronectin, sequence (P02751 other isoform, or with tags, fused parts or gaps limits assumed): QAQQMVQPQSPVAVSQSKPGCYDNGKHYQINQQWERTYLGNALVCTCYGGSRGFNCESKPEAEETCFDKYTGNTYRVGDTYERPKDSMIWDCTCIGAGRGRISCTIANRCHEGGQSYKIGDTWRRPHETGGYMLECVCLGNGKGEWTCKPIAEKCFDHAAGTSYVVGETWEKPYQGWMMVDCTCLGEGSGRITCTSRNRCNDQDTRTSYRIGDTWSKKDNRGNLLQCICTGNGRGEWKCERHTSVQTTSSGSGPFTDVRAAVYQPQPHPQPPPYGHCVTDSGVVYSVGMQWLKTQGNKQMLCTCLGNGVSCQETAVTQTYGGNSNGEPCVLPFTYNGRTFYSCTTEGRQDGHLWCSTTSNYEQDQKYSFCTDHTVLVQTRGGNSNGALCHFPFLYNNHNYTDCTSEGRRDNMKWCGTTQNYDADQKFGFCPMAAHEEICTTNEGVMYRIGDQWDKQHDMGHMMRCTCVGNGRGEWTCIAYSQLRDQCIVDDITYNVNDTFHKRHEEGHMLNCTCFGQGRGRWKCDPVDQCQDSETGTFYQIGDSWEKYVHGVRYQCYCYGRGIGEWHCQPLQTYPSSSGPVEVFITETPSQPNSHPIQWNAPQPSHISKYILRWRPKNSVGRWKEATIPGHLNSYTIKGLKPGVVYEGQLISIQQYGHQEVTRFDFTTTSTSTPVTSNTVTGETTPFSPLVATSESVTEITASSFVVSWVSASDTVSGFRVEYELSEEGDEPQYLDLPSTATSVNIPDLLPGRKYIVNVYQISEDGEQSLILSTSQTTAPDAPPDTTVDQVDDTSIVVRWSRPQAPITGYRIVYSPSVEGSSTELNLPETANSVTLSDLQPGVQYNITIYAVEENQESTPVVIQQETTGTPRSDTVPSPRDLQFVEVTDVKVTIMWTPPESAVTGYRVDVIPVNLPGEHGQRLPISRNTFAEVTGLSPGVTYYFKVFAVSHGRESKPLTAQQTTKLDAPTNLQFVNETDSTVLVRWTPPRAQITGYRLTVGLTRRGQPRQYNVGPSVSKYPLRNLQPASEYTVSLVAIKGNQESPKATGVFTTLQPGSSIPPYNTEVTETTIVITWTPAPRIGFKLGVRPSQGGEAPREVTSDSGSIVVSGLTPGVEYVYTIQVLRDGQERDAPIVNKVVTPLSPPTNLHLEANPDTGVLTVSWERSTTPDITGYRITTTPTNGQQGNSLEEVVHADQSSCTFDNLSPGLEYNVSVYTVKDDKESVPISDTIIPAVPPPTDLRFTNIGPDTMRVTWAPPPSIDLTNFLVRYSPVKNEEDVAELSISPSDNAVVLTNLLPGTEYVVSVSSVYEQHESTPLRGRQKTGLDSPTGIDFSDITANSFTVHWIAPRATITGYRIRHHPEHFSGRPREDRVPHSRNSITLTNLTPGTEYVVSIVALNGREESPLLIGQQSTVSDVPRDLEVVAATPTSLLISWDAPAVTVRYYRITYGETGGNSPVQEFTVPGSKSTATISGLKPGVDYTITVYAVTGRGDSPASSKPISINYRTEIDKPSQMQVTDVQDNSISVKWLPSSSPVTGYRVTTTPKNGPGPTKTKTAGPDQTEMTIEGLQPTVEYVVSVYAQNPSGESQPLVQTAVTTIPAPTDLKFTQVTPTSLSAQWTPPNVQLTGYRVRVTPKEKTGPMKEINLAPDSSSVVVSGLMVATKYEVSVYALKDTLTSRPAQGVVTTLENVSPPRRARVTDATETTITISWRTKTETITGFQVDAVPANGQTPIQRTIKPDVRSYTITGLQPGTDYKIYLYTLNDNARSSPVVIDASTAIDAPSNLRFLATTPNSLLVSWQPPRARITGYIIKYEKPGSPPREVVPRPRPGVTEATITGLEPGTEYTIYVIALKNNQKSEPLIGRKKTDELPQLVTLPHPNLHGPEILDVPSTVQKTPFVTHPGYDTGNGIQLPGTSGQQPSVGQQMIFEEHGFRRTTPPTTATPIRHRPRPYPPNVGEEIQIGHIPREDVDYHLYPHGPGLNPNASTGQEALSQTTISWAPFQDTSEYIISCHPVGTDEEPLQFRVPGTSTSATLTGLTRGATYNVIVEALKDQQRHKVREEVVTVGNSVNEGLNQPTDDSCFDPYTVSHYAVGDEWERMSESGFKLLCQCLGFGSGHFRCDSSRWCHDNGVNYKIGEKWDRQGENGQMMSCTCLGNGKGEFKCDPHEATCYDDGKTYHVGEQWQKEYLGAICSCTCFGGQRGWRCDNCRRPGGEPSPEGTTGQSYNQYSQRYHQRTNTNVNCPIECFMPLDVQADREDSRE

B1: LMJ1.2C (VHH)
VHH: QVQLVETGGGLVQAGGSLRLSCAASGSTFSHSAGGWYRQAPEKQRELVAGIRSDGNINYADSVKDRFTISRDNASNTMYLQMNNLKPEDTAVYVCNIRGSYGNTYYSRWGQGTQVTVSS
modifications: sortase-tagged with biotin in the Western blots ; Purified by a his-tag for BLI and sortase-tagged with biotin in the Western blots. The tag letters are not stated for the free nanobody, so they are left out.
notes: First round of yeast display; Expressed in E. coli, his-tag purified
Regarding B1, the binding result is reported as “no binding”.

B2: LMJ2.5G (VHH)
VHH: QVQLVETEGGLVQAGGSLRLSCAASGSTFSHSAGGWYRQAPEKQRELVAGIRSDGNINYADSVKDRFTISRDNASNTMYLQMNNLKPEDTAVYVCNIRGSYGNTYYSRWGQGTQVTVSS
modifications: sortase-tagged with biotin in the Western blots ; Western blots used the nanobody sortase-tagged with biotin at a terminus. The BLI material was his-tag purified. Tag letters are not stated for the stand-alone nanobody and are left out.
notes: Second round of yeast display; Expressed in E. coli, his-tag purified
On to B2, for which the binding result was “no binding”.

B3: LMJ2.5H (VHH)
VHH: QVQLVETGGGLVQAGGSLRLSCAVSGSTFSHSAGGWYRQAPEKQRELVAGIRSDGNINYADSVKDRFTISRDNASNTMYLQMNNLKPEDTAVYVCNIRGSYGNTYYSRWGQGTQVTVSS
modifications: sortase-tagged with biotin in the Western blots ; Western blots used the nanobody sortase-tagged with biotin at a terminus. The BLI material was his-tag purified. Tag letters are not stated for the stand-alone nanobody and are left out.
notes: as for B2
For the molecule B3, the binding result is listed as “no binding”.

B4: LMJ1.2G (VHH)
VHH: QVQLVETGGGLVQAGGSLRLSCAASGSTFSHSAGGWYRQAPEKQRELVAGIGSDGNINYADSVKDRFTISRDNASNTMYLQMNNLKPEDTAVYVCNIRGSYGNTYYSRWGQGTQVTVSS
modifications: sortase-tagged with biotin in the Western blots ; Purified by a his-tag for BLI and sortase-tagged with biotin in the Western blots. The tag letters are not stated for the free nanobody, so they are left out.
notes: as for B1
As to B4, the binding result is given as “no binding”.

B5: LMJ1.3J (VHH)
VHH: QVQLVGTGGGLVQAGGSLRLSCAASGSTFSHSAGGWYRQAPEKQRELVAGISSAGNINYADSVKDRFTISRDNASNTMYLQMNNLKPEDTAVYVCNIRGSYGNTYYSRWGQGTQVTVSS
modifications: sortase-tagged with biotin in the Western blots ; Purified by a his-tag for BLI and sortase-tagged with biotin in the Western blots. The tag letters are not stated for the free nanobody, so they are left out.
notes: as for B1
With B5, the binding result is recorded as “no binding”.

B6: LMJ2.5I (VHH)
VHH: RVQLVETGGGLVQAGGSLRLSCAVSGSTFSHSAGGWYRQAPEKQRELVAGIRSDGNINYADSVKDRFTISRDNASNTMYLQMNNLKPEDTAVYVCNIRGSYGNTYYSRWGQGAQVTVSS
modifications: sortase-tagged with biotin in the Western blots ; Purified by a his-tag for BLI and sortase-tagged with biotin in the Western blots. The tag letters are not stated for the free nanobody, so they are left out.
notes: as for B2
For the molecule B6, the binding result is reported as “no binding”.

B7: LMJ2.5J (VHH)
VHH: QVQLVETRGGLVQAGGSLRLSCAVSGSTFSHSAGGWYRQAPEKQRELVAGIGSAGNINYADSVKDRFTISRDNASNTMYLQMNNLKPEDTAVYVCNIRGSYGNTYYSRWGQGTQVTVSS
modifications: sortase-tagged with biotin in the Western blots ; Western blots used the nanobody sortase-tagged with biotin at a terminus. The BLI material was his-tag purified. Tag letters are not stated for the stand-alone nanobody and are left out.
notes: as for B2
B7: the binding result is “no binding”.

B8: LMJ2.4C (VHH)
VHH: QVQLVEAGGGLVQAGGSLRLSCAASGSTFSHSAGGWYRQAPEKQRELVAGIRSDGNINYADSVKDRFTISRDNASNTMYLQMNNLKPEDTAVYVCNIRGSYGNTYYSRWGQGIQVTVSS
modifications: sortase-tagged with biotin in the Western blots ; Purified by a his-tag for BLI and sortase-tagged with biotin in the Western blots. The tag letters are not stated for the free nanobody, so they are left out.
notes: as for B2
In the case of B8, the binding result was “no binding”.

B9: LMJ2.5C (VHH)
VHH: QVQLVETGGGLVQAGGSLRLSCAASGSTFSHSAGGWYRQAPEKQRELVAGVRSDGNINYADSVKDRFTISRDNASNTMYLQMNNLKPEDTAVYVCNIRGSYGNTYYSRWGQGIQVTVSS
modifications: sortase-tagged with biotin in the Western blots ; Purified by a his-tag for BLI and sortase-tagged with biotin in the Western blots. The tag letters are not stated for the free nanobody, so they are left out.
notes: as for B2
In the case of B9, the binding result was “no binding”.

B10: LMJ2.6A (VHH)
VHH: RVQLVETGGGLVQAGGSLRLSCAVSGRTFSHSAGGWYRQAPEKQRELVAGIRSDGNINYADSVKDRFTISRDNASNTMYLQMNNLKPGDTAVYVCNIRGSYGNTYYSRWGQGTQVTVSS
modifications: sortase-tagged with biotin in the Western blots ; Purified by a his-tag for BLI and sortase-tagged with biotin in the Western blots. The tag letters are not stated for the free nanobody, so they are left out.
notes: as for B2
On to B10, for which the binding result is recorded as “no binding”.
